In patent US20220193237A1 (Bristol-Myers Squibb, published 2022):

T1: monomeric human CTLA-4 (human, UniProt P16410 36-161, limits assumed)
T1 construct: Soluble monomeric analyte in SPR; also called huCTLA-4
T1 sequence: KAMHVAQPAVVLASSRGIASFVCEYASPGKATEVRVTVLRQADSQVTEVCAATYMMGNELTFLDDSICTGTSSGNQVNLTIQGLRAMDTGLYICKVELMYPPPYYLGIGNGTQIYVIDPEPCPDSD


What was measured:
[1] = molecular target: T2, human CTLA-4 on 58 α-β-CTLA-4/CD3 ζ cells (human; mouse (mCD3ζ)); test: flow cytometry, non-fucosylated IgG1 on 58αβ-CTLA4/mCD3ζ cells, pH 6.7
T2 construct: also called 58αβ-hCTLA4/mCD3ζ cells; 58αβ-CTLA4/mCD3ζ cells
Procedure: (§1) Antibodies were titrated from 100 μg/mL at a 1:4 dilution across 12 points in pH-specific buffers and incubated for 30-60 minutes. Buffers contained HBSS, 2% FBS^HI, 0.02% sodium azide, 2 mM EDTA, and sodium phosphate buffer (pH 5.4). Sodium phosphate buffer was added until desired pH was reached (7.2, 6.7, 6.2). Approximately 3e5 cells/well were tested for each cell line. […] Detection was done with a monovalent anti-hKappa secondary nanobody conjugated to Alexa647 and used at a dilution of 1:2000. Cells were fixed with BD Fix Solution I for 30 minutes prior to resuspension in pH-specific buffers and reading on the cytometer (BD Fortessa).

[2] = molecular target: T2, human CTLA-4 on 58 α-β-CTLA-4/CD3 ζ …; test: flow cytometry, non-fucosylated IgG1 on 58αβ-CTLA4/mCD3ζ cells, pH 7.2
Procedure: as §1

[3] = molecular target: T2, human CTLA-4 on 58 α-β-CTLA-4/CD3 ζ …; test: flow cytometry, non-fucosylated IgG1 on 58αβ-CTLA4/mCD3ζ cells, pH 6.2
Procedure: as §1

monomeric human CTLA-4 [4] = molecular target: T1, monomeric human CTLA-4; test: SPR, captured Fab, pH 6.0 vs 7.4
Procedure: (§2) Binding of selected variants to human CTLA-4 was determined essentially as described in Example 3. […] Nomenclature and sequences for these antibodies is provided at Tables 6 and 7, and in the sequence listing as summarized at Table 8.
(§3) Monomeric human CTLA-4 was flowed as analyte with up to 2 μM top concentration. Between cycles, the capture surface was regenerated with 75 mM phosphoric acid. Experiments were run on a BIACORE® T200 instrument at 37° C. Running buffers were HEPES buffered saline for pH 7.4 experiments and Bis-Tris buffered saline for lower pH experiments. […] Double referenced sensorgrams were fitted to a 1:1 Langmuir binding model with mass transport to determine equilibrium dissociation constants (KD), as well as association (kₐ) and dissociation (kd) rate constants where appropriate.

monomeric human CTLA-4 [5] = molecular target: T1, monomeric human CTLA-4; test: SPR, captured Fab, pH 6.0
Procedure: as §2, §3

monomeric human CTLA-4 [6] = molecular target: T1, monomeric human CTLA-4; test: SPR, captured Fab, pH 7.4
Procedure: as §2, §3

Row | Binder | Cmax (MFI) [1] | EC50 [1] | Cmax (MFI) [2] | EC50 [2] | Cmax (MFI) [3] | EC50 [3] | KD 7.4/6 (APBP) (monomeric human CTLA-4 [4]) | Kd (monomeric human CTLA-4 [5]) | kon (monomeric human CTLA-4 [5]) | t1/2 (monomeric human CTLA-4 [5]) | Kd (monomeric human CTLA-4 [6]) | ka 6/7.4 (monomeric human CTLA-4 [4]) | t1/2 6/7.4 (monomeric human CTLA-4 [4]) | kon (monomeric human CTLA-4 [6]) | t1/2 (monomeric human CTLA-4 [6])
1 | ipi.59 Fab (Fab, V domains shown, Tested as monovalent Fab) VH: QVQLVESGGGVVQPGRSLRLSCAASGFTFSSYTMHWVRQAPGKGLEWVTFISYDGHNKYYADSVKGRFTISRDNSKNTLYLQMNSLRAEDTAIYYCARTGWLGPFDYWGQGTLVTVSS VL: not shown | – | – | – | – | – | – | 1.9 | 11 nM | 1e+06 M⁻¹ s⁻¹ | 63 s | 21 nM | 1.3 | 1.5 | 810000 M⁻¹ s⁻¹ | 41 s
2 | ipi.88 Fab (Fab, V domains shown, Tested as monovalent Fab) VH: QVQLVESGGGVVQPGRSLRLSCAASGFTFSHYTMHWVRQAPGKGLEWVTFISYDGHNKYYADSVKGRFTISRDNSKNTLYLQMNSLRAEDTAIYYCARHGWLGPFDYWGQGTLVTVSS VL: not shown | – | – | – | – | – | – | 27 | 6.5 nM | 2e+06 M⁻¹ s⁻¹ | 53 s | 170 nM | – | – | – | –
3 | ipi.66 Fab (Fab, V domains shown, Tested as monovalent Fab) VH: QVQLVESGGGVVQPGRSLRLSCAASGFTFSSYTMHWVRQAPGKGLEWVTFISYDGHNKYYADSVKGRFTISRDNSKNTLYLQMNSLRAEDTAIYYCARTGWLGPFDYWGQGTLVTVSS VL: not shown | – | – | – | – | – | – | 7.6 | 3.5 nM | 1.2e+06 M⁻¹ s⁻¹ | 161 s | 26 nM | 1.8 | 4.3 | 700000 M⁻¹ s⁻¹ | 36 s

Next, values leading:

Row | Cmax (MFI) [1] | EC50 [1] | Cmax (MFI) [2] | EC50 [2] | Cmax (MFI) [3] | EC50 [3] | KD 7.4/6 (APBP) (monomeric human CTLA-4 [4]) | Kd (monomeric human CTLA-4 [5]) | kon (monomeric human CTLA-4 [5]) | t1/2 (monomeric human CTLA-4 [5]) | Kd (monomeric human CTLA-4 [6]) | ka 6/7.4 (monomeric human CTLA-4 [4]) | t1/2 6/7.4 (monomeric human CTLA-4 [4]) | kon (monomeric human CTLA-4 [6]) | t1/2 (monomeric human CTLA-4 [6]) | Binder
4 | 80200 MFI | 4.37 nM | 62000 MFI | 11.5 nM | 88000 MFI | 3.15 nM | – | – | – | – | – | – | – | – | – | ipi.106, non-fucosylated IgG1 (antibody, V domains shown, non-fucosylated N-linked glycan, Non-fucosylated full-length human IgG1; also called Ipi.106 IgG1-NF) VH: QVQLVESGGGVVQPGRSLRLSCAASGFTFSHYTMHWVRQAPGKGLEWVTFISYDGHNKYYADSVKGRFTISRDNSKNTLYLQMNSLRAEDTAIYYCARHGWLGPFDYWGQGTLVTVSS VL: EIVLTQSPGTLSLSPGERATLSCRASQEVGESELAWYQQKPGQAPRLLIYGAFSRATGIPDRFSGSGSGTDFTLTISRLEPEDFAVYYCQQYGSSPWTFGQGTKVEIKR
5 | – | – | – | – | – | – | 52 | 5.2 nM | 1.9e+06 M⁻¹ s⁻¹ | 70 s | 270 nM | – | – | – | – | ipi.94 Fab (Fab, V domains shown, Tested as monovalent Fab) VH: QVQLVESGGGVVQPGRSLRLSCAASGFTFSHYTMHWVRQAPGKGLEWVTFISYDGNNKYYADSVKGRFTISRDNSKNTLYLQMNSLRAEDTAIYYCARTGWLGPFDYWGQGTLVTVSS VL: EIVLTQSPGTLSLSPGERATLSCRASQEVGDSELAWYQQKPGQAPRLLIYGAFSRATGIPDRFSGSGSGTDFTLTISRLEPEDFAVYYCQQYGSSPWTFGQGTKVEIKR
6 | – | – | – | – | – | – | 99 | 2.8 nM | 1.9e+06 M⁻¹ s⁻¹ | 126 s | 280 nM | – | – | – | – | ipi.95 Fab (Fab, V domains shown, Tested as monovalent Fab) VH: QVQLVESGGGVVQPGRSLRLSCAASGFTFSHYTMHWVRQAPGKGLEWVTFISYDGHNKYYADSVKGRFTISRDNSKNTLYLQMNSLRAEDTAIYYCARTGWLGPFDYWGQGTLVTVSS VL: EIVLTQSPGTLSLSPGERATLSCRASQEVGDSELAWYQQKPGQAPRLLIYGAFSRATGIPDRFSGSGSGTDFTLTISRLEPEDFAVYYCQQYGSSPWTFGQGTKVEIKR
7 | – | – | – | – | – | – | > 59 | 17 nM | 1.8e+06 M⁻¹ s⁻¹ | 22 s | > 1000 nM | – | – | – | – | ipi.92 Fab (Fab, V domains shown, Tested as monovalent Fab) VH: QVQLVESGGGVVQPGRSLRLSCAASGFTFSHYTMHWVRQAPGKGLEWVTFISYDGHNKYYADSVKGRFTISRDNSKNTLYLQMNSLRAEDTAIYYCARHGWLGPFDYWGQGTLVTVSS VL: EIVLTQSPGTLSLSPGERATLSCRASQEVGDSELAWYQQKPGQAPRLLIYGAFSRATGIPDRFSGSGSGTDFTLTISRLEPEDFAVYYCQQYGSSPWTFGQGTKVEIKR
